The text below walks through data of patent publication CN112480258A (HUADAO SHANGHAI BIOMEDICAL CO LTD, dated 2021).

Positions count from the first letter of the chain named.

This assay addresses T1, Human IL-3Rα/CD123蛋白 (human, UniProt P26951 19-305, limits assumed).
T1 construct: Soluble antigen in the SPR mobile phase
T1 sequence (looked up): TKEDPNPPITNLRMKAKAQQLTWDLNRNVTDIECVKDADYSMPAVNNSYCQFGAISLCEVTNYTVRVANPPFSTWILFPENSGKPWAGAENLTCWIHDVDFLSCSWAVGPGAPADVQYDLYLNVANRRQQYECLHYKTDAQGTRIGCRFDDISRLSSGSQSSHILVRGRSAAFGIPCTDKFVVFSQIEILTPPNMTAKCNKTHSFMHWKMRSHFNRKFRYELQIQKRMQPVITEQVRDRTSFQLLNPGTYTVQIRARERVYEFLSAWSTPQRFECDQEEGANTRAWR
Kind of assay: SPR (Biacore), antibody immobilised on the chip, antigen in the mobile phase.

B1: CD123-9 VHH-mIgG2a Fc纳米抗体 (Fc fusion)
chain: EVQLVESGGGLVQPGGSLRLSCAASGFTFSSYDMSWVRQAPGKGLEWVSHIKPGPVGTDYTDSVKGRFTISRDNAKNTLYLQMDSLKTEDTAVYYCARGSRYSWNLDGPLRGQGTQVTVSS
notes: also called 抗CD123 VHH抗体CD123-9; CD123-9抗体; not shown: mouse IgG2a Fc tag from vector C-4pCP.Stuffer-mCg2a-FC
Turning to B1, binding was characterised by a dissociation constant (Kd) of 0.0466 nM; the koff (usually the rate constant with which the complex falls apart) amounted to 1.42e-05 s⁻¹; the kon (as a rule, a measure of how fast the partners come together) was 305000 M⁻¹ s⁻¹.

B2: CD123-12 VHH-mIgG2a Fc纳米抗体 (Fc fusion)
chain: B1 chain with G10D
notes: also called 抗CD123 VHH抗体CD123-12; CD123-12抗体; not shown: mouse IgG2a Fc tag from vector C-4pCP.Stuffer-mCg2a-FC
Turning to B2, the Kd (as a rule, the equilibrium constant for the complex coming apart) was 0.0551 nM; the koff stood at 1.62e-05 s⁻¹; the kon was 295000 M⁻¹ s⁻¹.
